Measurements as given in patent publication US9675625B2, “Medicament comprising recombinant antibody against chemokine receptor CCR4” (KYOWA HAKKO KIRIN CO., LTD., priority 2003, dated 2017).

How the values were obtained:
CCR4/EL4 cells [1] = experiment: in vitro cytotoxic activity (ADCC) of KM 2760 with cytokine-stimulated effector cells, LDH release; type: cell-based, mouse; settings: KM 2760 1 or 100 ng/mL, effector:target 15:1, 37° C. 4 hours, no cytokine, FIG. 1
Description: An effect of using anti-CCR4 human chimeric antibody KM 2760 (FERM BP-7054, WO 01/64754) and a cytokine in combination in an in vitro cytotoxic activity was measured by the following method.
A vein blood (50 mL) was collected from a healthy person, 0.5 mL of heparin sodium (manufactured by Shimizu Seiyaku K.K.) was added, and they were gently mixed. A mononuclear cell layer was separated from using a MONO-POLY separation solution (manufactured by Dainippon Pharmaceutical Co., Ltd.) according to the attached manual. […]
The target cell suspension (50 μL) prepared in the above (c) was added to each well of a 96-well U-shaped bottom plate containing the effector cells stimulated with the cytokine in the above (b) such that the concentration became 1×10^4 cells/well. […] After the reaction, the plate was subjected to centrifugation, and a lactic acid dehydrogenase (hereinafter referred to as LDH) activity in the supernatant was measured by obtaining an absorbance data with CytoTox96 Non-Radioactive Cytotoxic activity Assay (manufactured by Promega) according to the attached manual. […] Cytotoxic activity (%)=[(absorbance of a specimen)−(absorbance of effector cell spontaneous release)−(absorbance of target cell spontaneous release)]/[(absorbance of target cell total release)−(absorbance of target cell spontaneous release)]×100 (Formula 1)

CCR4/EL4 cells [2] = experiment: antitumor effect of KM 2760 and G-CSF in combination, CCR4/EL4 cells grafted into ventral skin of C57BL/6 mice; type: in vivo, C57BL/6 mouse
Description: CCR4/EL4 cells (WO 01/64754) were suspended, in RPMI 1640 medium (Gibco BRL) at a concentration of 1×10^6 cells/mL, and 100 μL of the suspension was grafted into the right ventral skin of C57BL/6 mice (Nippon Crea, male, 8 weeks old). After, mice were grouped into A to D, each of the agents A to D were administered to each mouse. Incidentally, the day on which the tumor was grafted was defined as Day 0.
B. Group of administering KM 2760 alone: 100 μg of KM2760 was intravenously administered per mouse on Day 0 and Day 4.
C. Group of administering G-CSF alone: 10 μg of G-CSF (Neuup Injection 100, manufactured by Kyowa Hakko Kogyo Co., Ltd.) was subcutaneously administered per mouse once a day for 10 days from 4 days before the tumor grafting (hereinafter referred to as Day-4) to Day 5.
The experiment was conducted with group A consisting of 10 mice and groups B, C and D each consisting of 7 mice. […] Each of the diluent was administered at 100 μL. A diameter of a tumor was measured with calipers chronologically from Day 0 of each group. A tumor volume was calculated using formula 2 in Example 2.
Since the tumor death of the mouse was started in group A from Day 17 on, the evaluation of the tumor volume was finished on Day 14.
The antitumor effect (T/C value) in each group was evaluated by calculation using the following formula 3 for comparison between the average value of the tumor volume in group A and the average values of the tumor volume in each group on the final evaluation day (Day 14). (T/C value)=(average value of tumor volume in each group on Day 14)/average value of tumor volume in group A on Day 14) (Formula 3)

B1: KM 2760: anti-CCR4 human chimeric antibody KM 2760 (FERM BP-7054, WO 01/64754) (antibody, V domains shown)
VH: EVQLVESGGDLMKPGGSLKISCAASGFIFSNYGMSWVRQTPDMRLEWVATISSASTYSYYPDSVKGRFTISRDNAENSLYLQMNSLRSEDTGIYYCGRHSDGNFAFGYWGRGTLVTVSA
VL: DVLMTQTPLSLPVSLGDQASISCRSSRNIVHINGDTYLEWYLQRPGQSPKLLIYKVSNRFSGVPDRFSGSGSGTDFTLKISRVEAEDLGVYYCFQGSLLPWTFGGGTRLEIRR
CCR4/EL4 cells [1]
  cytotoxic activity: increased in a concentration-dependent manner
CCR4/EL4 cells [2]; Day 14, KM 2760 100 μg per mouse i.v. Day 0 and Day 4, G-CSF 10 μg per mouse s.c. once a day Day-4 to Day 5
  T/C value (average tumor volume of group / group A): 0.48
CCR4/EL4 cells [2]; FIG. 6, up to Day 14
  antitumor effect compared to untreated group A (tumor volume): low
